Assay results: the supplement of paper PMC12042874
± gives the uncertainty stated by the source.

Assay: amyloid nucleation score (Sup35N fusion, yeast selection) (log enrichment); library NNK2; higher = more nucleation; inactive = no reads after selection
How it was run: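 Nucleation score is defined as the DiMSum log enrichment of output over input reads, with centring on the mode score of non-aggregating sequences. A minimum of 100 input reads was required for each sequence. Reads came from Illumina sequencing of plasmid inserts from psi-negative yeast expressing Sup35N fused to peptides of 20 random codons, induced with 100 μM copper sulfate for 24 hours and grown 7 days at 30°C on medium lacking adenine and uracil.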

Substance	amyloid nucleation score
VRPRAPSSADNPLQ	0.121 ± 0.49
VRRLLEAFWARKFFLVAITQ	-0.237 ± 0.79
VRVGVWSMTFG	-0.52 ± 0.78
VRWTRILVLIMFYAMSSTGT	2.65 ± 0.073
VRYDCYMPDMCFSRDHCWFE	0.079 ± 0.55
VRYTVTRTRGRYMVKCCENV	0.108 ± 0.2
VSAEWLYTGVWPMRLRSSGV	3.95 ± 0.055
VSDNGFFNRYNMTNCRIHGV	0.449 ± 0.57
VSEIRDFCVVIGF	0.573 ± 0.36
VSIPLIISTCASLSVCSMTW	8.067 ± 0.034
VSKSFFIVIV	5.702 ± 0.047
VSLRSDSGLGITVLMPPSRS	1.6 ± 0.44
VSLWVIKASRVNPFYSPGGK	0.301 ± 0.64
VSLYRKGSASKEGGLERATD	0.55 ± 0.3
VSMNDVLYLMCS	-0.556 ± 0.25
VSNRVLEMVSKEVASAKNQL	0.288 ± 0.34
VSPAHPNYFPISP	-0.889 ± 1.1
VSQVMLSK	0.626 ± 0.24
VSRFDA	0.306 ± 0.31
VSSRYCTCRLCHPWYSFWFS	-0.625 ± 0.54
VSSVVLCIIIRDGSMMFYYK	inactive
VSSYCIRML	0.11 ± 0.76
VSVNSGSVKLFVIPACCSYD	6.099 ± 0.055
VSWCFFDHYHSTILKHGTVS	inactive
VSYKWNGEWVRAPFDLQGCI	-0.464 ± 1.1

Substance	amyloid nucleation score
VTFLGDIRYFRCWCL	9.561 ± 0.077
VTIFILFSLNSGGHGSDRVW	4.849 ± 0.031
VTKVCGYLEFSMQVYRCVFH	inactive
VTLMSV	0.504 ± 0.74
VTLQPFCSARSWLEMNVKFF	4.44 ± 0.066
VTLRTANGDKWKTPASNI	inactive
VTRLFGIREFRG	3.65 ± 0.053
VTRTDVKPKVVGRRRARLCL	0.705 ± 0.44
VTRVWYRTSDCDAYSHGNFL	0.991 ± 0.27
VTTKKHPIYTVTRRDRKPGD	0.524 ± 0.32
VTVKYRVVTDVLRTMRNDSV	0.297 ± 0.34
VTVRRCSFFQVY	-0.196 ± 0.41
VTVRSFTNIRSTFKLDSPLL	0.122 ± 0.29
VVCFMPSFYAGPKI	5.281 ± 0.041
VVEGGRFLVDSRWKVVSRGC	-0.719 ± 0.38
VVHSFEWNLRRLSTWWRWGF	0.217 ± 0.31
VVIRCFYGTERNASWLLVCL	-0.059 ± 0.24
VVKFYWCIVQCCTWNGMKSH	8.363 ± 0.067
VVLRHHLFSSALYICMRGIQ	inactive
VVLRVLISFSHSTIRLEGLV	2.84 ± 0.093
VVMNLMEFMVRVSVLDNAEG	4.47 ± 0.075
VVQQLIRKITVFSLRLVLNK	4.16 ± 0.073
VVRGIRVTR	0.116 ± 0.28
VVRKGCL	-0.86 ± 1.1
VVRMVHLSADFQGK	5.26 ± 0.095

Substance	amyloid nucleation score
VVRSRW	0.372 ± 0.42
VVRYLPCRRLPVWWVVCYEI	0.488 ± 0.29
VVSGTLKKMGVFGTSAIISE	0.494 ± 0.8
VWELDRVVR	0.783 ± 0.53
VWFFGSYHVCWDCTF	0.378 ± 0.74
VWKNPYIGVHLLHDLKS	-0.391 ± 0.21
VWLDIYSQLEDENVYSSYLD	2.44 ± 0.086
VWLGVTSSPIIMSKNMSNVV	0.404 ± 0.36
VWLSFRVYLVMTSVLVILNC	1.13 ± 0.11
VWLTMKVAILPCSQRIEKMV	1.47 ± 0.38
VWLYKSLIINFDSKWRLS	6.268 ± 0.034
VWPQCYLSLVF	-0.082 ± 0.49
VWTLYYHHIGSAFSTCNRLF	4.5 ± 0.062
VWTSIYDFSLWADYGQK	-1.58 ± 1.1
VWVRIQMWYDIMSSASQLYR	0.446 ± 0.33
VWVRMRKAVGAVHYRDLRSS	8.893 ± 0.075
VWVWCFR	8.331 ± 0.042
VWWFPRLPIPKESVIINGLS	inactive
VWYSDDWSWWGARRLCKNRR	0.236 ± 1.1
VYDQIYGRLANRLVHNKWRR	-0.341 ± 0.55
VYGLVL	0.011 ± 0.45
VYKFEKESLLTLSHIHKVAS	-0.012 ± 1.1
VYLRMSFYYGKRP	4.12 ± 0.044
VYLSSLDSRMRLSTCFRE	-0.19 ± 0.35
VYNTFLREFHS	1.99 ± 0.13

Substance	amyloid nucleation score
VYPFSLSVAYVNRLLYYTVQ	2.14 ± 0.094
VYQYWYIAISLRGRPGQCRL	4.06 ± 0.05
VYRSRAVHATSLGSERFNTD	5.17 ± 0.1
VYSLYNDRYYC	-0.406 ± 0.31
VYVFYVSIKVAVFTLTM	3.92 ± 0.041
VYYASDNWYLAYRWEGRRFN	0.821 ± 0.27
VYYTVVCGDDRRCIKMCKFC	5.327 ± 0.032
VYYVWRNCLSDCLYYILTYF	-2.05 ± 0.78
WAGRCDHK	0.227 ± 0.25
WAKCRLTIMTKWSLLCGGLG	1.43 ± 0.34
WAPFMGVSKSTQTARTGMVM	-0.146 ± 0.61
WARCHVLA	-0.292 ± 0.55
WASFTSACRRLLSPCTPRSG	5.22 ± 0.1
WASIQVDRSLGCNIFWLLQ	3.73 ± 0.11
WCGYMNSSIKSRYSTYTFRS	2.13 ± 0.088
WCIFL	4.87 ± 0.087
WCLMQSFDGLSDME	0.561 ± 0.62
WCRAWGDFIMVKSLGLKCIA	-0.1 ± 0.49
WCTIHYDLMLVVRTNSSRSI	1.08 ± 0.18
WDCAWVLGLVAEGRLT	6.09 ± 0.039
WDNHYRIKYCG	inactive
WDPQCGSLPFFLLNAEAFET	inactive
WDQCLMLMCPNE	-0.291 ± 0.64
WDSRDLMC	0.344 ± 0.39
WDTLARYSGIQLVFE	-0.974 ± 0.55

Substance	amyloid nucleation score
WDVIELF	-1.4 ± 1.1
WEASCVNPH	-0.191 ± 0.65
WECYLFFCDIVGVGVHWRSS	-0.824 ± 0.42
WFCVVVMFGRRVDNLDKLVF	-1.33 ± 0.54
WFIGS	inactive
WFIRIAIMARSFCIIALVPR	-1.22 ± 0.47
WFIWNVENR	7.15 ± 0.08
WFMRDMEYFPDGLGDYG	inactive
WFMSIMSKYCRVSF	-0.149 ± 0.79
WFMSKAYVTSCALFSRVIHT	0.914 ± 0.43
WFSDIKSPASLLVSVVVVM	0.272 ± 0.57
WFSRFSFCRKHYLTVNNWGL	-0.566 ± 0.49
WGCNSNELSCRLYVVNYSGW	-0.251 ± 0.56
WGCWTVRSTT	0.92 ± 0.46
WGDIDF	-0.385 ± 0.64
WGDRLSVKFMCVDALGRVNL	0.019 ± 0.56
WGFIAVDGRPIVASLRYSMR	3.51 ± 0.084
WGHLVWGNTRCLGG	0.016 ± 1.1
WGNGLSFTAACLLVLLKRNS	2.2 ± 0.16
WHCLLGLNYLFGYVSYSTSW	4.99 ± 0.098
WHGRCWTSAKLAYRTRKTMC	1.86 ± 0.17
WHGVDVIVRLMVAHPLGRTS	4.36 ± 0.11
WHMLHRVDKAISFSLSCCGR	7.81 ± 0.084
WHSTVSLWSHPFPHKATKEP	0.256 ± 0.42
WHWISAYCTFICRKVLKEMP	0.478 ± 0.4

Substance	amyloid nucleation score
WIFSPGLMDFVEHDNLEWIA	0.67 ± 0.44
WIKLAFDWKQF	-1.18 ± 0.55
WIWVMWNKLCDSPDVWLANW	0.816 ± 0.51
WIYSFTMFATWTNVT	0.092 ± 0.79
WKSLGNSAVVIRLAS	-0.453 ± 1.1
WKTWSPKYWGSFVR	-0.283 ± 0.46
WKVRISVFMLEAL	2.77 ± 0.075
WLFSVSISGREDMMWSGLLE	0.061 ± 0.4
WLGIAAM	1.15 ± 0.43
WLIKKASRYSN	-0.608 ± 1.1
WLLFMS	-0.353 ± 0.54
WLLILLDISTSDFLQCWIGM	-0.037 ± 0.65
WLMCMPILRSCWMSSG	0.749 ± 0.22
WLMKINRT	0.129 ± 0.26
WLQSETIHDVRSLRWVSIKC	0.043 ± 0.74
WLYSIVCCDRKQSRSGMCDL	4.96 ± 0.069
WMIIVA	0.582 ± 0.54
WMKFTWWRHEYYVVS	-0.195 ± 0.79
WMSFTHLLNTIAVMSYLTVL	-0.249 ± 0.25
WNFFLGMAIMGLRRSCL	4.1 ± 0.068
WNGGQWGAWPLCSNVCAMRS	7.7 ± 0.062
WNGQDGQGLVGLKRP	0.344 ± 0.23
WNIWFTVCYCKHLSKSKGSD	8.667 ± 0.033
WNLRMYLNMGYMVLFNIQF	3.64 ± 0.099
WNLYSLSN	inactive

Substance	amyloid nucleation score
WPGLCYCGMPVRMNWLLVTP	-0.661 ± 1.1
WPIMMYGKFVFDRHIHCGAL	0.141 ± 0.41
WQGEPHPIHFMLSFVLMGW	0.957 ± 0.21
WQNETRMACRWFRRMLSFCI	1.42 ± 0.4
WQTEFIYSQVSTVGYKRLEG	2.38 ± 0.089
WRLCVWPRCGTAKLS	0.24 ± 0.32
WRSDLAVGFYKEMHSRRING	-0.992 ± 0.36
WRYDSWFKRKHCMLLYICQG	0.003 ± 0.43
WRYSRKMDRPFYRAMCYVNI	1.68 ± 0.1
WSDLFRRTMCGVW	0.624 ± 0.66
WSGDFLRYHCHAGDRCMMTM	-0.78 ± 0.63
WSLSYYISVDEDYGSRGVTM	-1.6 ± 1
WSMVQLPFSFIYPRGYLNMG	-0.615 ± 0.64
WSRKECG	0.408 ± 0.4
WSRSNLCTFSFLGNIISPDR	4.02 ± 0.073
WSWRGS	0.629 ± 0.52
WTFLIIIWYLDIVV	-1.76 ± 0.48
WTQGFYTFSDHAPLVIILLE	inactive
WTTLGGPVGREENGRRQAEG	1.17 ± 0.23
WTWGALDRRSGLFEVGGMYF	0.449 ± 0.47
WVDGICCPPRSG	0.292 ± 0.29
WVFRK	-0.11 ± 0.76
